Conditions in all cases: both partners purified
The target of one assay is T1, Kap114p wild type (S. cerevisiae, UniProt P53067 1-1004).
T1 construct: Kap114p (karyopherin-β), S. cerevisiae, full length, amplified from total genomic DNA; GST tag followed by a PreScission site (modified pGEX6p1); PreScission protease added during dialysis; also called Kap114p WT; GST-Kap114p (plasmid pGEX-6P-1-Kap114); source: E. coli Rosetta, purified (GST resin, MonoQ, Superdex 200)
T1 sequence (looked up): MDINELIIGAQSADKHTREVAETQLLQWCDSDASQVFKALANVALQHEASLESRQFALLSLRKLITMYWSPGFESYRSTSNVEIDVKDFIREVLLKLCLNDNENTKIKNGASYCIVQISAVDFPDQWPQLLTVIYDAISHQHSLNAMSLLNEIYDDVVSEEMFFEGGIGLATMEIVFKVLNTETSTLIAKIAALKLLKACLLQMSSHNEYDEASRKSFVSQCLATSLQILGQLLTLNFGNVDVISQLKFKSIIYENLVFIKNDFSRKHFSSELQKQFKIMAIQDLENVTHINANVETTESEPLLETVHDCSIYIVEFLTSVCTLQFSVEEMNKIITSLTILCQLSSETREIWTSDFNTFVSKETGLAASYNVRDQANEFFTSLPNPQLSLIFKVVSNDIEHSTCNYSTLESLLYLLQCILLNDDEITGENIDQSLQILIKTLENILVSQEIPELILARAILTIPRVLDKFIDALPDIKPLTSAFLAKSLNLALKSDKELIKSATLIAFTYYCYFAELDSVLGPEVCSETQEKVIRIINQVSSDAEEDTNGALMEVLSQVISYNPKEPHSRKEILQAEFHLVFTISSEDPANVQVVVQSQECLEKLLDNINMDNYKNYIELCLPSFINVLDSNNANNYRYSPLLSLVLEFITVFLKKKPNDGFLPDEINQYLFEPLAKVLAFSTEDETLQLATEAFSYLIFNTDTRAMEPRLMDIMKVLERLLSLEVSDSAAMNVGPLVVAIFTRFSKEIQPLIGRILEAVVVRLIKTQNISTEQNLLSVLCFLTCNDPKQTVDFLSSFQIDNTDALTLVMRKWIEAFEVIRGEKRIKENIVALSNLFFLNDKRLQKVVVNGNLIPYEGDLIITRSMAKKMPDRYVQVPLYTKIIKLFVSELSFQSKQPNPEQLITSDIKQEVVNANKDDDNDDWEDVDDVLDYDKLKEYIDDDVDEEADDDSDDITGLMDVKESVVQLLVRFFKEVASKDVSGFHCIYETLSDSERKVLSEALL
Briefly: ITC; MicroCal iTC200, 25 °C, 20 mM HEPES pH 7.4, 150 mM NaCl; high concentration: 50 µM wild type or mutant Kap114p in the sample cell, 500 µM wild type or mutant yTBPC in the syringe; triplicate.

The next assay has as its target T2, Kap114p(Y370A) (S. cerevisiae, UniProt P53067 1-1004, Y370A).
T2 construct: Kap114p, S. cerevisiae, full length, point mutant Y370A; source: E. coli Rosetta, purified (GST resin, MonoQ, Superdex 200); not shown: GST, N-terminal, cleaved
T2 sequence (looked up): T1 sequence (looked up) with Y370A
Put plainly: ITC; MicroCal iTC200, 25 °C, 20 mM HEPES pH 7.4, 150 mM NaCl; 25 or 50 μM wild type or mutant Kap114p in the cell, 250 or 500 μM wild-type or mutant yTBP^C in the syringe; triplicate. (In general: ITC needs no label: the signal is the heat of the interaction.)

Another assay has as its target T3, Kap95p (S. cerevisiae, UniProt Q06142 1-861).
T3 construct: Kap95p, S. cerevisiae, full length; The purification paragraph is headed for Kap114p proteins; that Kap95p was treated alike is surmised; source: E. coli, GST-tagged construct in modified pGEX6p1; purification told for the GST-tagged proteins; not shown: GST, N-terminal, cleaved
T3 sequence (looked up): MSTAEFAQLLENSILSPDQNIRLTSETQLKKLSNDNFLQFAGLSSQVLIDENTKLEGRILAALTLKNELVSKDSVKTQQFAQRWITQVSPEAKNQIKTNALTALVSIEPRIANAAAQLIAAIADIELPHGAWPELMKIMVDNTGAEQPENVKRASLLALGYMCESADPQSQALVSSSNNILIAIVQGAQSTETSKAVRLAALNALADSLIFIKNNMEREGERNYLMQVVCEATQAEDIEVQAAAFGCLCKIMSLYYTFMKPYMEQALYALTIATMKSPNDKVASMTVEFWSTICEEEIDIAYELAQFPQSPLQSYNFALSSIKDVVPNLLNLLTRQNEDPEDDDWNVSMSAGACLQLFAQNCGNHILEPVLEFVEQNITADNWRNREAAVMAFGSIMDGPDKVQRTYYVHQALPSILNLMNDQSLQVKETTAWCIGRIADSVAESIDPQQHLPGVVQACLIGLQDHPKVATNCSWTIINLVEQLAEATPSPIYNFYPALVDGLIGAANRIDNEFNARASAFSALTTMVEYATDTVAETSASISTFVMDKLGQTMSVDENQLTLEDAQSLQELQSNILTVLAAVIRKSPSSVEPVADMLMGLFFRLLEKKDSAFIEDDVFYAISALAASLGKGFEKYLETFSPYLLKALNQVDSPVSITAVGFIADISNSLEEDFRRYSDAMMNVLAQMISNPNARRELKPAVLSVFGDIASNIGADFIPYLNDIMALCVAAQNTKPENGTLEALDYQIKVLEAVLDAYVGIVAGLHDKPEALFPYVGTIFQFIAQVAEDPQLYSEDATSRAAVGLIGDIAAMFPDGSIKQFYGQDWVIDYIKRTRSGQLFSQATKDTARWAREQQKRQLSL
Put plainly: ITC; Kap95p with wild type or R141A yTBP^C; which protein was in the cell is not told for Kap95p; n = 3.

A further assay deals with T4, Kap114p (wild type) (S. cerevisiae, UniProt P53067 1-1004).
T4 construct: Kap114p, S. cerevisiae, full length, amplified from total genomic DNA; GST tag removed with PreScission protease; also called karyopherin-β Kap114p; source: E. coli Rosetta, purified (GST resin, MonoQ, Superdex 200); not shown: GST, N-terminal, cleaved
T4 sequence (looked up): T1 sequence (looked up)
Briefly: ITC; MicroCal iTC200, 25 °C, 20 mM HEPES pH 7.4, 150 mM NaCl; 25 or 50 μM wild type or mutant Kap114p in the cell, 250 or 500 μM wild-type or mutant yTBP^C in the syringe; triplicate.

The target in assay [1] is T5, Kap114p (Q597A) (S. cerevisiae, UniProt P53067 1-1004, Q597A).
T5 construct: Kap114p, S. cerevisiae, full length with Q597A; also called GST-Kap114p (Q597); source: E. coli Rosetta, purified (GST resin, MonoQ, Superdex 200)
T5 sequence (looked up): T1 sequence (looked up) with Q597A
Briefly: ITC; MicroCal iTC200, 25 °C, 20 mM HEPES pH 7.4, 150 mM NaCl; low concentration: 25 µM wild type or mutant Kap114p in the sample cell, 250 µM wild type or mutant yTBPC in the syringe; triplicate.

Assay [2] has as its target T5, Kap114p (Q597A). Put plainly: ITC; MicroCal iTC200, 25 °C, 20 mM HEPES pH 7.4, 150 mM NaCl; high concentration: 50 µM wild type or mutant Kap114p in the sample cell, 500 µM wild type or mutant yTBPC in the syringe; triplicate.
A further assay deals with T6, Kap114p (Y370A) (S. cerevisiae, UniProt P53067 1-1004, Y370A).
T6 construct: Kap114p, S. cerevisiae, full length with Y370A; also called GST-Kap114p (Y370A); source: E. coli Rosetta, purified (GST resin, MonoQ, Superdex 200)
T6 sequence (looked up): T1 sequence (looked up) with Y370A
Put plainly: ITC; MicroCal iTC200, 25 °C, 20 mM HEPES pH 7.4, 150 mM NaCl; low concentration: 25 µM wild type or mutant Kap114p in the sample cell, 250 µM wild type or mutant yTBPC in the syringe; triplicate.

We go through 5 molecules from PMC10491584, “Structural convergence endows nuclear transport receptor Kap114p with a transcriptional repressor function toward TATA-binding protein” (Nature Communications, 2023).

Numbering of substitutions follows the chain as printed. Names and notes keep the numbering of the source.

B1: yTBP^C (K145A) (domain or fragment, S. cerevisiae, UniProt P13393 61-240, looked up)
chain: SGIVPTLQNIVATVTLGCRLDLKTVALHARNAEYNPKRFAAVIMRIREPKTTALIFASGKMVVTGAKSEDDSKLASRKYARIIQAIGFAAKFTDFKIQNIVGSCDVKFPIRLEGLAFSHGTFSSYEPELFPGLIYRMVKPKIVLLIFVSGKIVLTGAKQREEIYQAFEAIYPVLSEFRKM
notes: also called yTBP(K145A); pET28a-Spt15 (61-240) (K145A); source: E. coli Rosetta, purified (Ni-NTA, HiTrap SP, Superdex 75); not shown: His6, N-terminal, cleaved
Take B1: in the assay with Kap114p wild type, the Kd was 238 nM. This lies in the sub-micromolar range.

B2: yTBP^C (N91A) (domain or fragment, S. cerevisiae, UniProt P13393 61-240, looked up)
chain: B1 chain with N31A, A85K
notes: 61-240, point mutant N91A; also called yTBP(N91A); source: E. coli Rosetta, purified (Ni-NTA, HiTrap SP, Superdex 75); not shown: His6, N-terminal, cleaved
On to B2, for which the Kd with Kap114p(Y370A) is about 1500 nM.

B3: yTBP^C (R141A) (domain or fragment, S. cerevisiae, UniProt P13393 61-240, looked up)
chain: B1 chain with R81A, A85K
notes: 61-240, point mutant R141A; also called yTBP(R141A); source: E. coli Rosetta, purified (Ni-NTA, HiTrap SP, Superdex 75); not shown: His6, N-terminal, cleaved
B3 came in with a Kd with Kap95p of about 9700 nM. Further, the “fold reduction of the binding affinity against wild type yTBP^C” value in the assay with Kap114p (wild type) was over 200 fold.

B4: yTBP^C (R141A) (domain or fragment, S. cerevisiae, UniProt P13393 61-240, looked up)
chain: B1 chain with R81A, A85K
notes: also called yTBP(R141A); His-yTBP (61-240) (R141A); source: E. coli Rosetta, purified (Ni-NTA, HiTrap SP, Superdex 75); not shown: His6, N-terminal, cleaved
Turning to B4, the dissociation constant Kd in the assay with Kap114p (Q597A) [1] came to 165 nM; with Kap114p wild type, 255 nM; with Kap114p (Q597A) [2], 316 nM.

B5: yTBP^C (N91A) (domain or fragment, S. cerevisiae, UniProt P13393 61-240, looked up)
chain: B1 chain with N31A, A85K
notes: also called yTBP(N91A); His-yTBP (61-240) (N91A); source: E. coli Rosetta, purified (Ni-NTA, HiTrap SP, Superdex 75); not shown: His6, N-terminal, cleaved
Turning to B5, the Kd worked out at 938 nM in the assay with Kap114p (Y370A) and 28.9 nM with Kap114p wild type.

What is called Kd is a measure of binding affinity in units of concentration.
